The assay deals with filamentous actin (rabbit skeletal muscle actin) (UniProt P68135). Description: high-speed actin cosedimentation. The settings on record: F-actin 0-25 µM; parent: 93.30 ± 3.05.

The text below walks through data of article PMC8902617.

With “ASAP1 BAR-PH (residues 1-431), His6-tagged, wild type (from UniProt Q9QWY8) K153A; K156A; K159A”, the other: % max (maximal binding, % protein in the pellet) worked out at 88.6%.
